{"source": "patent US20240336672A1", "about": "(INSTITUT PASTEUR, published 2024)", "key": {"[1]": {"biological_target": "T1, SARS-CoV-2 Spike ectodomain (tri-S), Wuhan (SARS-CoV-2, UniProt P0DTC2 14-1208)", "experiment": "ELISA"}, "[2]": {"biological_target": "T2, SARS-CoV-2 delta variant B.1.617.2/3 RBD domain (SARS-CoV-2)", "experiment": "RBD-ACE2 competition ELISA"}, "[3]": {"biological_target": "SARS-CoV-2 omicron variant B.1.1.529 RBD domain (SARS-CoV-2)", "experiment": "ELISA", "set-up": "unit not given beside the values"}, "[4]": {"biological_target": "SARS-CoV-2 omicron variant B.1.1.529 Spike ectodomain (tri-S, HexaPro) (SARS-CoV-2, UniProt P0DTC2 14-1208)", "experiment": "ELISA", "set-up": "unit not given beside the values"}, "[5]": {"biological_target": "SARS-CoV-2 RBD (B.1.351) domain (SARS-CoV-2)", "experiment": "ELISA", "set-up": "unit not given beside the values"}, "[6]": {"biological_target": "SARS-CoV-2 RBD (P.1) domain (SARS-CoV-2)", "experiment": "ELISA", "set-up": "unit not given beside the values"}, "[7]": {"biological_target": "T3, SARS-CoV-2 kappa variant B.1.617.1/3 RBD domain (SARS-CoV-2)", "experiment": "ELISA", "set-up": "unit not given beside the values"}, "[8]": {"biological_target": "SARS-CoV-2 delta plus variant RBD (SARS-CoV-2)", "experiment": "ELISA", "set-up": "unit not given beside the values"}, "[9]": {"biological_target": "T1, SARS-CoV-2 Spike ectodomain (tri-S), …", "experiment": "ELISA", "set-up": "unit not given beside the values"}, "[10]": {"biological_target": "T2, SARS-CoV-2 delta variant B.1.617.2/3 …", "experiment": "ELISA", "set-up": "unit not given beside the values"}, "[11]": {"biological_target": "SARS-CoV-2 RBD (B.1.351) domain (SARS-CoV-2)", "experiment": "ELISA", "set-up": "unit not given beside the values", "remark": "listed apart in the source"}, "[12]": {"biological_target": "SARS-CoV-2 RBD (B.1.1.7) domain (SARS-CoV-2)", "experiment": "ELISA", "set-up": "unit not given beside the values"}, "[13]": {"biological_target": "T4, SARS-CoV-2 spike, Delta variant (B.1.617.2), on virus or pseudotyped particles (SARS-CoV-2)", "experiment": "cell-based or functional assay"}, "[14]": {"biological_target": "SARS-CoV-2 RBD (P.1) domain (SARS-CoV-2)", "experiment": "RBD-ACE2 competition ELISA", "set-up": "unit not given beside the values"}, "[15]": {"biological_target": "T3, SARS-CoV-2 kappa variant B.1.617.1/3 …", "experiment": "RBD-ACE2 competition ELISA", "set-up": "unit not given beside the values"}, "[16]": {"biological_target": "SARS-CoV-2 delta plus variant RBD (SARS-CoV-2)", "experiment": "RBD-ACE2 competition ELISA", "set-up": "unit not given beside the values"}, "[17]": {"biological_target": "T2, SARS-CoV-2 delta variant B.1.617.2/3 …", "experiment": "RBD-ACE2 competition ELISA", "set-up": "unit not given beside the values"}, "[18]": {"biological_target": "SARS-CoV-2 RBD (B.1.351) domain (SARS-CoV-2)", "experiment": "RBD-ACE2 competition ELISA", "set-up": "unit not given beside the values"}, "[19]": {"biological_target": "SARS-CoV-2 RBD (B.1.1.7) domain (SARS-CoV-2)", "experiment": "RBD-ACE2 competition ELISA", "set-up": "unit not given beside the values"}, "[20]": {"biological_target": "SARS-CoV-2 spike, Gamma variant (P.1), on virus or pseudotyped particles (SARS-CoV-2)", "experiment": "cell-based or functional assay"}, "[21]": {"biological_target": "SARS-CoV-2 spike, Beta variant (B.1.351), on virus or pseudotyped particles (SARS-CoV-2)", "experiment": "cell-based or functional assay"}, "[22]": {"biological_target": "T4, SARS-CoV-2 spike, Delta variant …", "experiment": "cell-based or functional assay", "remark": "listed apart in the source"}, "[23]": {"biological_target": "T1, SARS-CoV-2 Spike ectodomain (tri-S), …", "experiment": "infrared immunoblot on heat-denatured tri-S"}}, "data": [{"binder": "CV2.1388 (antibody) heavy chain: QVQLVQSGPEVKKPGTSVKVSCKASGFTFTSSAVQWVRQARGQRLEWIGWIVVGSGDTNYAQKFQERVTITRDMSTSTAYMELSSLRSEDTAVYYCATDRQAGSRTYYFPGEGWFDPWGQGTLVTVSS light chain: QSVLTQPPSVSAAPGQKVTISCSGSTTNIGNNYVSWYQRLPGTAPKLLIYDNNKRPSGIPDRFSGSKSGTSATLGITGLQTGDEADYYCGTWDSSLSGVVFRRRDQADRPR", "values": [{"measurement": "binding result", "setting": "[1]", "result": "no binding (tested: 10 µg/ml)"}]}, {"binder": "Cv2.5179 (recombinant human IgG1) (antibody, V domains shown, also called Cv2.5179 IgG) VH: QVQLVQSGPEVKKPGTSVKVSCKASGFTFTSSAVQWVRQARGQRLEWIGWIVVGSGNTNYAQKFQERVTITRDMSTSTAYMELSSLRSEDTAVYYCAAPHCSSTSCYDAFDIWGQGTMVTVSS VL: not shown", "values": [{"measurement": "IC50 (read off the curve)", "setting": "[2]", "result": "~0.4", "unit": "µg/mL"}, {"measurement": "AUC", "setting": "[3]", "result": 2}, {"measurement": "AUC", "setting": "[4]", "result": 3}, {"measurement": "AUC", "setting": "[5]", "result": 12}, {"measurement": "AUC (Binding)", "setting": "[6]", "result": 11}, {"measurement": "AUC (Binding)", "setting": "[7]", "result": 12}, {"measurement": "AUC (Binding)", "setting": "[8]", "result": 12}, {"measurement": "AUC (Binding)", "setting": "[9]", "result": 12}, {"measurement": "AUC (Binding)", "setting": "[10]", "result": 12}, {"measurement": "AUC (Binding)", "setting": "[11]", "result": 11}, {"measurement": "AUC (Binding)", "setting": "[12]", "result": 11}, {"measurement": "IC50, S-Fuse neutralisation", "setting": "[13]", "result": 5.2, "unit": "ng/mL"}, {"measurement": "AUC (Blocking)", "setting": "[14]", "result": 50}, {"measurement": "AUC (Blocking)", "setting": "[15]", "result": 114}, {"measurement": "AUC (Blocking)", "setting": "[16]", "result": 144}, {"measurement": "AUC (Blocking)", "setting": "[17]", "result": 115}, {"measurement": "AUC (Blocking)", "setting": "[18]", "result": 49}, {"measurement": "AUC (Blocking)", "setting": "[19]", "result": 64}]}, {"binder": "LY-CoV555 (parental IgG1 version) (antibody, V domains shown) VH: QVQLVQSGAEVKKPGSSVKVSCKASGGTFSNYAISWVRQAPGQGLEWMGRIIPILGIANYAQKFQGRVTITADKSTSTAYMELSSLRSEDTAVYYCARGYYEARHYYYYYAMDVWGQGTAVTVSS VL: not shown", "values": [{"measurement": "IC50, in vitro neutralisation", "setting": "[20]", "result": "> 25", "unit": "nM"}, {"measurement": "IC50, in vitro neutralisation", "setting": "[21]", "result": "> 25", "unit": "nM"}, {"measurement": "IC50, in vitro neutralisation", "setting": "[22]", "result": "> 25", "unit": "nM"}]}, {"binder": "Cv2.3132 (IgG) (antibody, V domains shown) VH: EVQLVESGGGLVKPGGSLRLSCAASGFTFSDYYMSWIRQAPGKGLEWVSYISSSGSVQYYADSVKGRFTISRDNAENSLYLQMNSLRAEDTAVYYCARYYYDSSGYWKRLDYWGQGTLVTVSS VL: not shown", "values": [{"measurement": "binding result", "setting": "[23]", "result": "binds"}]}, {"binder": "CV2.1174 (antibody, V domains shown) VH: EVQLVESGPEVKKPGTSVKVSCKASGFTFTRSAMQWVRQARGQRLEWIGWIVVGSGNTNYAQKFQERVTITRDMSTSTAYMELSSLRSEDTAVYYCAARQDYYYYGMDVWGQGTTVTVSS VL: DIQMTQSPSSLSASVGDRVTITCRASQGMSNSLDWDQQKPGKAPKLLLYAASRLKSGVPSRFSGSGSGTDYTLTISSLQPEDFATYYCQQYYSDPPKTFGQGTKVEIK", "values": [{"measurement": "binding result", "setting": "[1]", "result": "no binding (tested: 10 µg/ml)"}]}, {"binder": "CB6 (parental IgG1 version) (antibody, V domains shown) VH: EVQLVESGGGLVQPGGSLRLSCAASGFTVSSNYMSWVRQAPGKGLEWVSVIYSGGSTFYADSVKGRFTISRDNSMNTLFLQMNSLRAEDTAVYYCARVLPMYGDYLDYWGQGTLVTVSS VL: not shown", "values": [{"measurement": "IC50, in vitro neutralisation", "setting": "[20]", "result": "> 25", "unit": "nM"}, {"measurement": "IC50, in vitro neutralisation", "setting": "[21]", "result": "> 25", "unit": "nM"}]}]}
